Consider one molecule from patent EP4696329A1 (BioRay Pharmaceutical Co., Ltd., dated 2024).

Experiment [1] has as its target T1, human ROR1 protein (recombinant ROR1 antigen, Kactus Biosystems) (human, UniProt Q01973 30-406, limits assumed). The experiment is described as follows: BLI (Octet R8).
The target of experiment [2] is human ROR2 protein (hROR2, Kactus Biosystems, Cat. No. ROR-HM402) (human, UniProt Q01974 34-403, limits assumed). Kind of experiment: ELISA, plate coated with hROR2. For orientation: An ELISA detects its analyte on a solid surface through an enzyme-linked reagent.
human ROR2 protein (hROR2, Kactus Biosystems, Cat. No. ROR-HM402), sequence (Q01974 34-403 limits assumed): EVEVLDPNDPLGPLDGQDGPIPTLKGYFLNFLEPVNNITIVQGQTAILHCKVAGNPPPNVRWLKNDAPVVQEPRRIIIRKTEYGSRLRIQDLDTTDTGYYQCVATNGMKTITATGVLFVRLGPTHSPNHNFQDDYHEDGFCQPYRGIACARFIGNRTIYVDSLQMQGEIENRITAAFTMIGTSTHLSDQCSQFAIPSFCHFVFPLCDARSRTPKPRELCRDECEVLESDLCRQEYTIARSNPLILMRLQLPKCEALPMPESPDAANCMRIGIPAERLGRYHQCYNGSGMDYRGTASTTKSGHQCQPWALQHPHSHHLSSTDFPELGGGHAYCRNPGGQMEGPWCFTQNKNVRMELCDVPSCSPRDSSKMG
Experiment [3] addresses T1, human ROR1 protein (recombinant ROR1 …). The experiment is described as follows: BLI (Octet R8), antibody captured on AHC sensor, ROR1 antigen as analyte. Background: In BLI a coated tip is dipped into the sample, and binding shifts an interference pattern.
Experiment [4] deals with T2, human ROR1 expressed on cells (MDA-MB-231, Jeko-1, PA-1, HCC1187) (human, UniProt Q01973 30-937).
T2 construct: also called hROR1
T2 sequence (Q01973 30-937 limits assumed): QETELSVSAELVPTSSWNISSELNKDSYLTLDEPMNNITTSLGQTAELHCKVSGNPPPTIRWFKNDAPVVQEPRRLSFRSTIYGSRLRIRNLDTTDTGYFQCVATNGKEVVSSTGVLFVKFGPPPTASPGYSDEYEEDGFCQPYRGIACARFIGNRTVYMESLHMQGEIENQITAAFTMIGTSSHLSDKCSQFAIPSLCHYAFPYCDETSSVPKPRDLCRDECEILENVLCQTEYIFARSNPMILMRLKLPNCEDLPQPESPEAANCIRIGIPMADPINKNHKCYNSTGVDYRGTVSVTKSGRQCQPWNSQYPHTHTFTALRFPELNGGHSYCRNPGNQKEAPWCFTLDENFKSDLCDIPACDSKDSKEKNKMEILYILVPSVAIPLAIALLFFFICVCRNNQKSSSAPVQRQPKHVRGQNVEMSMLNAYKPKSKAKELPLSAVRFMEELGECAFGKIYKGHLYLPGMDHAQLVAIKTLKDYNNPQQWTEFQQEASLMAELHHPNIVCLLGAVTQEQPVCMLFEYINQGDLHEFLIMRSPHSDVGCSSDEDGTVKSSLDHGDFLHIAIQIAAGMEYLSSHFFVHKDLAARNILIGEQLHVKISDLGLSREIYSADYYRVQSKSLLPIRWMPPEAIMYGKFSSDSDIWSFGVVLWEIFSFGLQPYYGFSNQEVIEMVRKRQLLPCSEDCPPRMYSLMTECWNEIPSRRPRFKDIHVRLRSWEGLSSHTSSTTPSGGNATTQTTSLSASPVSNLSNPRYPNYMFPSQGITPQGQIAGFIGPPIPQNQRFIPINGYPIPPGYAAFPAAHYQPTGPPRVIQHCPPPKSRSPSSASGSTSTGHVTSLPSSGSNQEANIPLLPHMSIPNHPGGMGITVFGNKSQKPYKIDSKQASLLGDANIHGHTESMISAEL
Kind of experiment: flow cytometry on MDA-MB-231 cells. In general terms: A flow cytometer gives signals particle by particle.

Experiment [5] addresses T2, human ROR1 expressed on cells …. The experiment is described as follows: flow cytometry on PA-1 cells.
Experiment [6] addresses T1, human ROR1 protein (recombinant ROR1 …). Kind of experiment: binding to ROR1 (column 'Binding to ROR1'; method not described).
Experiment [7] concerns the target T2, human ROR1 expressed on cells …. Kind of experiment: flow cytometry on Jeko-1 cells.

T1 sequence (Q01973 30-406 limits assumed): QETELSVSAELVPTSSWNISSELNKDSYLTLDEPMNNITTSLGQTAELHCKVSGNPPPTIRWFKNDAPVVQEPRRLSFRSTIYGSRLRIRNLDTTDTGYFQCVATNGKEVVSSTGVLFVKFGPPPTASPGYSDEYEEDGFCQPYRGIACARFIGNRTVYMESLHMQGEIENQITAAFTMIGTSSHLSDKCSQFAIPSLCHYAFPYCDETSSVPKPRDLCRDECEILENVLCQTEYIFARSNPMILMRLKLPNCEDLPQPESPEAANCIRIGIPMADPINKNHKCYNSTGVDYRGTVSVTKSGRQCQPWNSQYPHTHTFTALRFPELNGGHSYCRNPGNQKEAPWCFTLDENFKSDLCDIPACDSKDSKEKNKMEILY

B1: AM3-ZH3 (antibody, human IgG1, kappa, V domains shown)
VH: EVQLVESGGGLVQPGGSLRLSCAASGFTFSSYPMSWVRQAPGKGLEWVSSISTGASAYFPDSVKGRFTISRDNAKNSLYLQMNSLRAEDTAVYYCARITTSTWYMDVWGQGTTVTVSS
VL: DIQMTQSPSAMSASVGDRVTITCKASQDIYSYLSWFQQKPGKVPKTLIYRANRLVRGVPSRFSGSGSGQEYTLTISSLQPEDMATYYCLQYDEFPYTFGQGTKLEIKR
notes: human IgG1 / kappa
For orientation: Kd means the equilibrium constant for the complex coming apart. Broadly, the EC50 is the concentration giving half of the maximal effect. On to B1, for which the “fold affinity against H10-hVH4-hVL4” value in experiment [1] worked out at 9 fold. For the same molecule, in experiment [2], the binding result was “no binding (tested: starting from 333.33 nM)”. Also, the equilibrium dissociation constant (Kd) in experiment [3] turned out to be 5 nM. Further, the EC50 in experiment [4] was determined as 0.011 µg/mL; in experiment [5], 0.33 nM; in experiment [6], 0.0123 µg/mL; in experiment [7], 0.031 nM. The MFI fold in experiment [5] was 2.5 fold; in experiment [7] it was 2.8 fold.
